Data taken from patent US20130065259A1.

Tested on: SNAPtide (FITC/DABCYL), List Biological Laboratories product #521

BoNT/A complex
Km, non-bead based assay (free BoNT/A), SNAPtide conversion: typical Km=0.7 µM | fold change of Km, immobilized against free enzyme: 3.2-fold lower
